# Measurements: the DeepSol protein solubility set
# Assay: soluble on expression in E. coli; label from the status in PepcDB or PDB records
row,Sequence,soluble on expression in E. coli
1,MERTGFLEYVLNYVKKGVELGGFPEDFYKILSRPRRVLIVNIPVRLDGGGFEVFEGYRVQHCDVLGPYKGGVRFHPEVTLADDVALAILMTLKNSLAGLPYGGAKGAVRVDPKKLSQRELEELSRGYARAIAPLIGDVVDIPAPDVGTNAQIMAWMVDEYSKIKGYNVPGVFTSKPPELWGNPVREYATGFGVAVATREMAKKLWGGIEGKTVAIQGMGNVGRWTAYWLEKMGAKVIAVSDINGVAYRKEGLNVELIQKNKGLTGPALVELFTTKDNAEFVKNPDAIFKLDVDIFVPAAIENVIRGDNAGLVKARLVVEGANGPTTPEAERILYERGVVVVPDILANAGGVIMSYLEWVENLQWYIWDEEETRKRLENIMVNNVERVYKRWQREKGWTMRDAAIVTALERIYNAMKIRGWI,soluble
2,MNLTIIEFESNVLRDNPLNDPYKRRVGIIYPKDYEGRPILIYLSGYLSSSLTQINYNPLGEDMVSKVERLSNEGKMKGSVIVLPDMFTKVGGNQYINSSAVGMYEDFLVKELIPFLKDKFKSDKIGIFGHSSGGYGALILGMKYPNTIKAIADHAGDAYFEYVYLPTFPRAIEQLRRFKTPEEWLENYWKKENKQHREDLNTLNVVGMSAFYSPNNEKIELPFDLETGEILEDVWKKWLEKDPVRMVDKYADNLKMLKFIFIDVGKKDEFNIQYGSRTLHKKLQKYGINHYYEEFNDGHLHTNYRYDISLSLLEKKLTSE,not soluble
3,MGSDKIHHHHHHMAKNKQEDIFDAAMQLFAERGYDGTTIPMIAEKAKVGAGTIYRYFENKEALVNSLFSKSMLQLSEMIKTDFPVEANIREQFSHTYNRLFEFARNNVDAFLFTNSHCDSYFLDEQSKKIFDDFIGFFMNIIEDGIVKGLLRPLPPVALIIIVYQPLEKLIKVIATGQLEYSKELVKELEESSWNAIRII,not soluble
4,MKPTVNVVFNAHHPKDTQPLDKFFDKELKDTHHLDITVGYISEKSLQYLLLIAGTHPDLTITLTCGMHAREGMTAAQLHHARVLHDYLSDHDRGGVFVIPRLRYHGKIYLFHKNQHTDPIAYIGSANLSAIVPGYTSTFETGVILDPAPEDLVLHLNRDVVPLCVPIDTAHVPIIKDQESPMKHVAEATAVSTSDVVAIMSSPFTYSFDLKLKATASSNLNAHNSGGGARKQKNGSFLARNWYEGEIIVGVETTRLPGYPQNKSEFTAVTDDGWSFVCKISGGNGKNLRSKGDLSILGTWLKSRFIEQGALEYGEDATQENIDRFGRTHMTMRYHPDFDVWSFDLSQTPKP,not soluble
5,GPEAERAEMLAWFDRINAERRRAGMVAVLTRRCNLACPYCFEGGQAPEGDMSEETADLLAAMIEREYLAKGWRVDMDFYGGEPLLRPDLIRRIAEPLRAAGGGLFHGNMVSNGSLLNRAVMTDLTALGIESVKVTLDGPPQVHDRYRPYGGGAGSFHDILRGMGEVVDLVKIHVGGNFTRETWREYPALLDLLLAEGFTPDRLGTVRFTP,not soluble
6,MSLSTPSKAMAAMEFNTTSVNKSSAIDSNNTKKEQLSDVNDISFTDHGYYIIPSLDTLNGMPLVELRSVNGLVVGHKDYGKVEFLEPVDLVNVPLNSICDKLIHFEPKTCILYPNSPIKPKKGEGMNVPAKITCFDCFPINKSTREPILDANSTLLKKHIDKLKKVPGTKFVSYEEKTGKYVFTVDEPILEGHHHHHH,soluble
7,MIPDQRRELMLRQLRKHQVLSVHQLMEMFDCSHMTIRRDIAQLEQEGRAYSVTGGVRIASQVHSEPSHQSKAVVELPHKQGMARLAAGLLHPDMTIYLDAGTSTLEIVPHIIALSGMTVVTNDFGVVNALADAAHVDVIHTGGLLDHPNRSSVGGLAAATLRQLATDVAFMSTSSWDLQRGTTTPSALKVEVKQAAMQSASQTVLVATSSKYGTFGMYKVAGLDQFDTIISDAALAEAAADGIRKQRIELLLAPVGGRSKLEHHHHHH,not soluble
8,ATALAGSNGVCIAYYITDGRNPTFKLKDIPDKVDMVILFGLKYWSLQDTTKLPGGTGMMGSFKSYKDLDTQIRSLQSRGIKVLQNIDDDVSWQSSKPGGFASAAAYGDAIKSIVIDKWKLDGISLDIEHSGAKPNPIPTFPGYAATGYNGWYSGSMAATPAFLNVISELTKYFGTTAPNNKQLQIASGIDVYAWNKIMENFRNNFNYIQLQSYGANVSRTQLMMNYATGTNKIPASKMVFGAYAEGGTNQANDVEVAKWTPTQGAKGGMMIYTYNSNVSYANAVRDAVKN,soluble
9,MRVVVTGATGFVGQQVVKALSDRGDQVVALVRSPGKAAKQFAGVPRVEWLGYTPKAAGDWFSALEGADAVIHLAGEPLANGRWTPQRKQEIYDSRVVGTQQLVQAIAQCQQRPRVLVSTSAIGYYGTSDTETFVETHAAGNDFLAKVCGDWEAAAQGVTELGVRLVILRFGIVLGEQGALAKLLLPFQLYLGGPLGSGQQWFSWIHQQDLVRLILTAVDQVGMQGVYNATAPEPLRMADFCRILAEVMQRPSWLPVPAPVLQLLLGEGADVVLKGQRVLPERTLATGFEFHYPNAKTALTNLLKPRYTEGSRLEHHHHHH,soluble
10,MSLSDTHIPLPERLRPRDLSEIIGQDHLLGEHAPLRQMIDQGHLPSIIFWGPPGVGKTTIALLLAQAVDRPFVSLSALNTGVKELREIIAESGDLLTPVVFIDEIHRFNKSQQDALLNAVEKGKITLIGATTENPSFEVNSALLSRCQVYTLNVLDSAAIQNLIDRAIDSDSFLKQRHIHIEEYEALIQFAAGDARKALNLIDLIASTFEPDQENIVTNAVTVKVAQQNIARYDKSGEQHYDIISAFIKSIRGSDPDAALYWMARMIKGGEDPVFIARRMLIAASEDIGNSNPNALLLAGECFRSVQAVGMPEARIILGQCAVYLATSPKSNSTYLAIDRALALAEKTANLPVPLHLRNAPTKLMKQQGYGADYLYPHHYPEHFVLQEYLPPELKGTKLYEFSRNKREVEGERLQQRRWQQDQEGHHHHHH,soluble
11,GPLGSHMASEFINQGDVTEGNNNQEEVYCFCRNVSYGPMVACDNPACPFEWFHYGCVGLKQAPKGKWYCSKDCKEIANQRSKSKRQKRRK,soluble
12,MGVVRRGSDVTSHVSSVSGKSAPCLQHFSVIRSIGRGAFGKVCIVQERKTKKYFALKYMNKRRCIEKGVAANVIRELTLLSKMSHPFIVNLWYTFQDGDYMYMVSDLLLGGDLRYHLSQQGKFAEDRAKLYLCEICLAVEYLHEMKIVHRDIKPENILLDEQGHAHLTDLNLATQLEDDQLATSYSGTRPYMAPEIYATYLEIEDGYDSRVDWWALGVCFYEMLRGRTPFEFSSRTKPEEAYVAFRESSIPYPAHWPTDLIQFINSMLKFDKEKRLVGLEAIKKHSYTERIDFKSVFEKKPSPVFIPCKEGLNCDPMYELEERILVSTPIHRRRTNHNNSSGRSSSEPQNAALVEVSKAFIDFSRHNVKIEPNGFVKLN,not soluble
13,MSLSDAAAVTVVEQTEKRHKLIGYWHNFVNGAGCPIRLADMADAWDVIDIAFAENDRNSDGTVHFNLYSGDIYSDCPALDPTQFKQDMAALQAKGKKFVLSLGGAEGTITLNTDQDEANFVSSLTGLIAEWGFDGLDVDLESGSNLVHGSQIQARLGRALLQIEQNMGGDMYLTMAPEHPYVQGGYVAYSGIWGAYIPVINDTRSTLDLLHVQLYNNGGLPNPYLPSSAPEGSVDMMVAQSKMLIEGFELADGTQFAPLRDDQVAIGLPSGPSSANSGQAPTQNILNALDCLTKGTSCGTVKPAFNYPNYAGVMTWSINWDQHDGFNFSKPVGDKLTQMNAEGHHHHHH,soluble
14,MGSDKIHHHHHHMALQWVKRTIKAGAALAGCVLVVTALDPARGSVDAKERVKGIVAAAAMSPAGIPFELAAQEIATIGTRPMAERLSISGELQPVNRVLIRAREAGKILEMNVREGQAVRAGDMLVRFETDELQSTLLLRQSDRDAAEAELMLAMQALARTEQLAAKNIASTEQLDKAKSDVVVKTTRVQSLSSQVDIARLALRNAEIRAPFDGTVTRRVAETGARIGADGELLTLVDTSELEAKVLVATRDIPRVARGQTAELEIDGLAGQIVKGTVERISPVAEDGTRVVAVYLRLANRDGQLWGGMFAGGSILLREKNDALVVPAIALRKDETGYHVLKIQDGHLRRQTVAVGPRWNGGSLIEIGAGLADGETILTVPLPELRPDMAVTIDKAG,not soluble
